In the RNAGym collection of RNA variant scans (doi:10.7554/elife.80360):

B1: CPEB3 Ribozyme (parent)
chain: GGGGGCCACAGCAGAAGCGUUCACGUCGCGGCCCCUGUCAGAUUCUGGUGAAUCUGCGAAUUCUGCUGU

Variants of: B1
Experiment: self-cleavage, relative activity (ratio to wild type); higher = more cleavage; co-transcriptional

Variant | self-cleavage
C35A G50U | 0.287
C34U C35U | 0.736
C34U C35G | 0.313
C34U C35A | 0.194
C35A U46G | 0.356
C35A U46A | 0.268
C34G U49A | 0.784
C34G U49G | 0.64
C34G U49C | 0.689
C34G A42C | 0.317
C34U U43G | 0.708
C34U A51G | 1.01
C34U A51C | 0.985
C34U A51U | 0.957
C35A G65A | 0.299
C35A G65U | 0.184
C35U C54A | 0.744
C35A U62G | 0.21
C35A U62A | 0.306
C35A U62C | 0.242
C35G C63A | 0.341
C35A C57U | 0.191
C35G C45A | 0.475
C35G C45G | 0.452

Variant | self-cleavage
C35G C45U | 0.483
C34U G50C | 0.999
C34U G50A | 1.03
C35G A52U | 0.474
C35G A52C | 0.433
C34U U69G | 1.04
C34U U69C | 1.07
C34U U69A | 1.01
C35U C57A | 0.323
C35A C54A | 0.315
C35A C54U | 0.252
C35A G58U | 0.286
C34G U36C | 0.819
C34G U36G | 0.263
C34A G48C | 0.857
C34A G48U | 0.877
C35G U62G | 0.308
C35G U62A | 0.313
C34A G65A | 0.617
C34A G65U | 0.57
C35U C39A | 0.782
C35U C39G | 0.878
C34A U62A | 0.602
C34A U62C | 0.358

Variant | self-cleavage
C34A U62G | 0.434
C35G G41U | 0.341
C35A G68U | 0.394
C35A G68C | 0.345
C35G U44A | 0.346
C35G U44C | 0.357
C34A U44G | 0.526
C34A U44C | 0.724
C34G C35A | 0.196
C34G C35U | 0.29
C34G C35G | 0.244
C34A G68A | 0.935
C34A G68C | 0.954
C34A G68U | 0.956
C35G A40U | 0.261
C35G A40C | 0.225
C35G A40G | 0.394
C34U U44A | 0.963
C34U U44C | 0.938
C34U U44G | 0.859
C35A G56A | 0.218
C35A G56U | 0.223
C35A G56C | 0.253
C34A U53C | 0.565

Variant | self-cleavage
C34A U53G | 0.331
C34A U53A | 0.409
C35A U38A | 0.279
C35A U38C | 0.256
C35A C66A | 0.22
C35A C66U | 0.259
C35A C66G | 0.294
C35G U53G | 0.214
C35G U53C | 0.342
C34A U64A | 0.794
C34A U64C | 0.728
C34A G41U | 0.339
C34A G41C | 0.33
C34U G68C | 0.962
C34U G68A | 1.01
C35A U43C | 0.264
C35A U43G | 0.227
C35A U43A | 0.185
C34G A59G | 0.538
C34G A59U | 0.234
C34U U46C | 0.977
C34U U46A | 1
C34U U46G | 0.988
C34G U69A | 0.886

Variant | self-cleavage
C34G U69C | 0.971
C35G A51G | 0.461
C35G A51U | 0.445
C35G A51C | 0.426
C35G G58U | 0.375
C35G G58C | 0.295
C34A U36A | 0.229
C35G U64G | 0.304
C35G U64C | 0.274
C34A G58A | 0.656
C34A U46G | 0.843
C34A G50U | 0.8
C34U U62G | 0.892
C34U U62A | 0.921
C35A U67C | 0.324
C34G G56A | 0.579
C34G G56U | 0.538
C34U C54A | 0.809
C34U C54U | 0.985
C34U C54G | 0.819
C35A G47A | 0.292
C35A G47C | 0.189
C35A G47U | 0.259
C35G U43C | 0.372

Variant | self-cleavage
C35G U43A | 0.335
C35G U43G | 0.31
C35G C54G | 0.348
C34G C39A | 0.394
C34U U55A | 0.925
C34U U55G | 0.84
C34G C45A | 0.641
C34G C45U | 0.746
C34G C45G | 0.604
C34G G68U | 0.929
C34G G68C | 0.842
C34A U49C | 0.79
C34A U49A | 0.867
C34U C57U | 0.385
C34U C57A | 0.315
C34U A59C | 0.661
C34U A59G | 0.899
C35A C39U | 0.183
C35A C39G | 0.3
C35G G48U | 0.491
C35G G48A | 0.452
C34G U62A | 0.453
C34G U62G | 0.477
C34G U62C | 0.316

Variant | self-cleavage
C34G C57G | 0.332
C35U C45G | 0.956
C35A G48U | 0.249
C34U G47A | 0.958
C34U G47U | 0.995
C34U G47C | 0.968
C34U C63G | 0.78
C35A A51C | 0.255
C35A A51G | 0.234
C34U U67G | 0.982
C34A U69G | 0.947
C34A U69A | 0.971
C34G G41A | 0.318
C34G G41C | 0.296
C34G G41U | 0.33
C34G A40U | 0.417
C34G A40C | 0.326
C34G A40G | 0.631
C35G C66U | 0.474
C35G C66A | 0.308
C34G G37U | 0.171
C34G G37A | 0.24
C34U U36C | 0.922
